Experimental data: the Human Domainome abundance scans (Beltran et al. 2025)
± gives the uncertainty stated by the source.

B1: Cullin-9, residues 2234 to 2275; numbered along this chain, Q8IWT3 (parent)
chain: KRCPSCQAPIEKNEGCLHMTCAKCNHGFCWRCLKSWKPNHKD
B2: F-BAR and double SH3 domains protein 1, residues 467 to 528; numbered along this chain, Q86WN1 (parent)
chain: RALPCPAHVVFRYQAGREDELTITEGEWLEVIEEGDADEWVKARNQHGEVGFVPERYLNFPD

Variants of: B1
Assay: abundance fitness (aPCA) (normalised: wild type 0, dead -1); higher = more abundant; growth selection in yeast, the domain comes from the species named
Settings: Homo sapiens

Going from KRCPSCQAPAEKNEGCLHMTCAKCNHGFCWRCLKSWKPNHKD [I10A] to KRCPSCQAPNEKNEGCLHMTCAKCNHGFCWRCLKSWKPNHKD [I10N], the abundance fitness falls from -0.193 ± 0.11 to -0.534 ± 0.21.

KRCPSCQAPIEKNELCLHMTCAKCNHGFCWRCLKSWKPNHKD [G15L] and KRCPSCQAPIEKNEPCLHMTCAKCNHGFCWRCLKSWKPNHKD [G15P] are within error of each other in abundance fitness: -0.515 ± 0.17 for the first, -0.259 ± 0.12 for the second.

KRCPSCVAPIEKNEGCLHMTCAKCNHGFCWRCLKSWKPNHKD [Q7V] and KRCPSCQAPIEKNEGCLHMTCAKCNHGFCWRCCKSWKPNHKD [L33C] are within error of each other in abundance fitness: -0.198 ± 0.11 for the first, -0.412 ± 0.13 for the second.

KRCPSCQAPIEKNEGCLHMTCAKCNHGFCWRCNKSWKPNHKD [L33N] and KRCPSCQAPIEKNEGCLHMTCAKCNHGFCWRCYKSWKPNHKD [L33Y] are within error of each other in abundance fitness: -0.432 ± 0.11 for the first, -0.512 ± 0.21 for the second.

KRCPSCQAPIEKNEGCLHMTCAKCNHGFCWRCKKSWKPNHKD [L33K] and KRCPSCQAPIEKNEGCLHMDCAKCNHGFCWRCLKSWKPNHKD [T20D] are within error of each other in abundance fitness: -0.184 ± 0.16 for the first, -0.166 ± 0.14 for the second.

KSCPSCQAPIEKNEGCLHMTCAKCNHGFCWRCLKSWKPNHKD [R2S] and KRCPSCQAPIEKNEGCLHMTCAKCNHGFCWWCLKSWKPNHKD [R31W] are within error of each other in abundance fitness: 0.077 ± 0.092 for the first, -0.025 ± 0.096 for the second.

First: KRCPSCQAPIEKNEGCLHMTCAKCNHGFCWFCLKSWKPNHKD [R31F]
Second: KRCPSCQAPIEKPEGCLHMTCAKCNHGFCWRCLKSWKPNHKD [N13P]
The abundance fitness of the first is lower: -0.258 ± 0.14 for the first, 0.183 ± 0.12 for the second.

KRCPSCQAPIEKNEGCLHMTCAKCNHIFCWRCLKSWKPNHKD [G27I] and KRCPSCQAPIEKNEGCLHMTCAKCNHKFCWRCLKSWKPNHKD [G27K] are within error of each other in abundance fitness: -0.083 ± 0.26 for the first, 0.075 ± 0.14 for the second.

Compared with KRCPSCQAPIEKNEGCLHMTCAKCNHYFCWRCLKSWKPNHKD [G27Y], KRCPSCQAPIEKNEGCLHMTCAKCNHSFCWRCLKSWKPNHKD [G27S] is higher in abundance fitness: -0.425 ± 0.3 for the first, 0.256 ± 0.097 for the second.

First: KRCPSCQAPIAKNEGCLHMTCAKCNHGFCWRCLKSWKPNHKD [E11A]
Second: KRCPSCQAPICKNEGCLHMTCAKCNHGFCWRCLKSWKPNHKD [E11C]
The abundance fitness of the first is higher: -0.185 ± 0.14 for the first, -0.487 ± 0.16 for the second.

KRCPSCQAPIWKNEGCLHMTCAKCNHGFCWRCLKSWKPNHKD [E11W] and KRCPSCQAPIEKNEGCLHMTCDKCNHGFCWRCLKSWKPNHKD [A22D] are within error of each other in abundance fitness: -0.069 ± 0.14 for the first, 0.229 ± 0.19 for the second.

First: KRCPSCQAPIEKNEGCLHMTCAKCNHGFCWRCLKSWKCNHKD [P38C]
Second: KRCPSAQAPIEKNEGCLHMTCAKCNHGFCWRCLKSWKPNHKD [C6A]
The abundance fitness of the first is lower: -0.695 ± 0.19 for the first, -0.029 ± 0.096 for the second.

KRCPSIQAPIEKNEGCLHMTCAKCNHGFCWRCLKSWKPNHKD [C6I] and LRCPSCQAPIEKNEGCLHMTCAKCNHGFCWRCLKSWKPNHKD [K1L] are within error of each other in abundance fitness: -0.419 ± 0.18 for the first, -0.493 ± 0.15 for the second.

Compared with IRCPSCQAPIEKNEGCLHMTCAKCNHGFCWRCLKSWKPNHKD [K1I], CRCPSCQAPIEKNEGCLHMTCAKCNHGFCWRCLKSWKPNHKD [K1C] is lower in abundance fitness: 0.164 ± 0.34 for the first, -1.12 ± 0.26 for the second.

KRCHSCQAPIEKNEGCLHMTCAKCNHGFCWRCLKSWKPNHKD [P4H] and KRCASCQAPIEKNEGCLHMTCAKCNHGFCWRCLKSWKPNHKD [P4A] are within error of each other in abundance fitness: -0.022 ± 0.32 for the first, 0.098 ± 0.078 for the second.

Going from KRCQSCQAPIEKNEGCLHMTCAKCNHGFCWRCLKSWKPNHKD [P4Q] to KRCGSCQAPIEKNEGCLHMTCAKCNHGFCWRCLKSWKPNHKD [P4G], the abundance fitness rises from -0.351 ± 0.11 to 0.056 ± 0.07.

Going from KRCPSCQAPIEKNEGCLHMTCAKKNHGFCWRCLKSWKPNHKD [C24K] to KRCPSCQAPIEKNEGCLHMTCAKCNMGFCWRCLKSWKPNHKD [H26M], the abundance fitness rises from -0.379 ± 0.13 to -0.109 ± 0.12.

KRCPSCQAPIEKNEGCLHMTCAKCNTGFCWRCLKSWKPNHKD [H26T] and KRCPSCQAPIEKNEGCLHMTCAKCNVGFCWRCLKSWKPNHKD [H26V] are within error of each other in abundance fitness: -0.226 ± 0.16 for the first, -0.266 ± 0.081 for the second.

Going from KRCPSCQAPIEKNEGCLHMTCAKCNFGFCWRCLKSWKPNHKD [H26F] to KRCPSCQAPIEKNEGCLHMTCAKCNCGFCWRCLKSWKPNHKD [H26C], the abundance fitness falls from 0.146 ± 0.2 to -0.628 ± 0.15.

Going from KRCPSCQAPIEKNEGCLHMTCAKCNPGFCWRCLKSWKPNHKD [H26P] to KRCPSCQAPIEKNEGCLHMTCAKCNWGFCWRCLKSWKPNHKD [H26W], the abundance fitness falls from -0.154 ± 0.098 to -0.541 ± 0.14.

Going from KRCPSCQAPIEKNPGCLHMTCAKCNHGFCWRCLKSWKPNHKD [E14P] to KRCPSCQAPIEKNEGCLHMTCAGCNHGFCWRCLKSWKPNHKD [K23G], the abundance fitness falls from -0.011 ± 0.16 to -0.262 ± 0.08.

Going from KRCPSCQAAIEKNEGCLHMTCAKCNHGFCWRCLKSWKPNHKD [P9A] to KRCPSCQAQIEKNEGCLHMTCAKCNHGFCWRCLKSWKPNHKD [P9Q], the abundance fitness rises from -0.198 ± 0.09 to 0.014 ± 0.1.

KRCPSCQAYIEKNEGCLHMTCAKCNHGFCWRCLKSWKPNHKD [P9Y] and KRCPSCQAPIEKNEGCLWMTCAKCNHGFCWRCLKSWKPNHKD [H18W] are within error of each other in abundance fitness: -0.265 ± 0.18 for the first, -0.329 ± 0.09 for the second.

KRCPSCQAPIEKNEGCLHMTCAKCNHGFCWRCLKSFKPNHKD [W36F] and KRCPSCQAPIEKNEGCLHMTCAKCNHGFCWRCLKSHKPNHKD [W36H] are within error of each other in abundance fitness: -0.194 ± 0.19 for the first, -0.015 ± 0.47 for the second.

KRCPSCQAPIEKNEGCLHMTCAKCNHGFCWRCLKSNKPNHKD [W36N] and KRCPSCQAPIEKNEGCLHMTCAKCNHGFCWRCLASWKPNHKD [K34A] are within error of each other in abundance fitness: -0.355 ± 0.34 for the first, -0.431 ± 0.092 for the second.

Compared with KRCPSCQAPIEKNEGCLHMTCAKCNHGFCWRCLHSWKPNHKD [K34H], KRCPSCQAPIEKNEGSLHMTCAKCNHGFCWRCLKSWKPNHKD [C16S] is higher in abundance fitness: -0.252 ± 0.15 for the first, 0.422 ± 0.083 for the second.

KRCPSCQAPIEKNEGCLHMTCAKCNHGFCWRCLKRWKPNHKD [S35R] and KRCPSCQAPIEKNEGCLHMTCAKCPHGFCWRCLKSWKPNHKD [N25P] are within error of each other in abundance fitness: -0.356 ± 0.097 for the first, -0.382 ± 0.12 for the second.

KRCPSCQAPIEKNEGCGHMTCAKCNHGFCWRCLKSWKPNHKD [L17G] and KRCPSCQAPIEKNEGCLHMTCAKCNHGFCWRCLKSWKPSHKD [N39S] are within error of each other in abundance fitness: -0.062 ± 0.075 for the first, 0.001 ± 0.12 for the second.

KRCPSCQAPIEKNEGCLHMTCAKCNHGFCWRCLKSWKPLHKD [N39L] and KRCPSCQAPIEKNEGCLHMTCAKCNHGFCERCLKSWKPNHKD [W30E] are within error of each other in abundance fitness: 0.001 ± 0.078 for the first, 0.016 ± 0.11 for the second.

Going from KRCPSCQAPIEKNEGCLHMTCAKCNHGFCKRCLKSWKPNHKD [W30K] to KRCPSCQAPIEKNEGCLHMTCAKCNHGFCWRLLKSWKPNHKD [C32L], the abundance fitness falls from -0.366 ± 0.15 to -0.939 ± 0.11.

KRCPDCQAPIEKNEGCLHMTCAKCNHGFCWRCLKSWKPNHKD [S5D] gave an abundance fitness of -0.147 ± 0.12.

Variants of: B2
Assay: as above
Settings: Homo sapiens

First: F60I
Second: F60D
The abundance fitness of the first is higher: -0.154 ± 0.069 for the first, -0.768 ± 0.33 for the second.

Compared with F60G, F60L is higher in abundance fitness: -0.555 ± 0.063 for the first, -0.213 ± 0.041 for the second.

Compared with F60P, F60W is higher in abundance fitness: -0.466 ± 0.18 for the first, -0.064 ± 0.051 for the second.

First: F60V
Second: F60Q
The abundance fitness of the first is higher: -0.157 ± 0.05 for the first, -0.778 ± 0.11 for the second.

F60C and F60R are within error of each other in abundance fitness: -0.275 ± 0.065 for the first, -0.329 ± 0.047 for the second.

F60N and F60A are within error of each other in abundance fitness: -0.531 ± 0.16 for the first, -0.535 ± 0.086 for the second.

F60E and F60T are within error of each other in abundance fitness: -0.561 ± 0.1 for the first, -0.499 ± 0.091 for the second.

Going from F60M to F60K, the abundance fitness falls from -0.223 ± 0.079 to -0.533 ± 0.1.

D62M and D62G are within error of each other in abundance fitness: -0.181 ± 0.18 for the first, -0.057 ± 0.089 for the second.

Going from D62P to D62T, the abundance fitness rises from -0.235 ± 0.082 to 0.028 ± 0.079.

Going from D62H to D62R, the abundance fitness falls from 0.011 ± 0.13 to -0.309 ± 0.15.

First: D62F
Second: D62A
The abundance fitness of the first is lower: -0.399 ± 0.11 for the first, 0.012 ± 0.075 for the second.

Compared with D62L, D62S is higher in abundance fitness: -0.151 ± 0.053 for the first, 0 ± 0.056 for the second.

D62N and D62Q are within error of each other in abundance fitness: -0.201 ± 0.074 for the first, -0.276 ± 0.17 for the second.

D62E and D62C are within error of each other in abundance fitness: 0.114 ± 0.1 for the first, 0.111 ± 0.14 for the second.

D62I and D62W are within error of each other in abundance fitness: -0.435 ± 0.12 for the first, -0.356 ± 0.084 for the second.

D62Y and D62K are within error of each other in abundance fitness: -0.17 ± 0.079 for the first, -0.148 ± 0.15 for the second.

R56K and R56H are within error of each other in abundance fitness: 0.033 ± 0.057 for the first, -0.118 ± 0.1 for the second.

R56P and R56G are within error of each other in abundance fitness: -0.129 ± 0.062 for the first, -0.125 ± 0.061 for the second.

First: R56M
Second: R56A
The abundance fitness of the first is lower: -0.126 ± 0.055 for the first, 0.035 ± 0.06 for the second.

First: R56Y
Second: R56S
The abundance fitness of the first is lower: -0.174 ± 0.078 for the first, 0.052 ± 0.043 for the second.

R56F and R56L are within error of each other in abundance fitness: -0.164 ± 0.072 for the first, -0.117 ± 0.037 for the second.

R56C and R56E are within error of each other in abundance fitness: -0.012 ± 0.12 for the first, 0.053 ± 0.081 for the second.

R56Q and R56D are within error of each other in abundance fitness: 0.012 ± 0.053 for the first, -0.074 ± 0.11 for the second.

Compared with R56W, R56T is higher in abundance fitness: -0.263 ± 0.12 for the first, 0.005 ± 0.068 for the second.

R56V showed an abundance fitness of -0.096 ± 0.057.
